Biological target: VEGF receptor Flk-1 on rat neural stem cells (rat) (UniProt O08775)
Assay: cell-based or functional assay

Chain of VEGF receptor Flk-1 on rat neural stem cells (rat) (O08775 20-1343): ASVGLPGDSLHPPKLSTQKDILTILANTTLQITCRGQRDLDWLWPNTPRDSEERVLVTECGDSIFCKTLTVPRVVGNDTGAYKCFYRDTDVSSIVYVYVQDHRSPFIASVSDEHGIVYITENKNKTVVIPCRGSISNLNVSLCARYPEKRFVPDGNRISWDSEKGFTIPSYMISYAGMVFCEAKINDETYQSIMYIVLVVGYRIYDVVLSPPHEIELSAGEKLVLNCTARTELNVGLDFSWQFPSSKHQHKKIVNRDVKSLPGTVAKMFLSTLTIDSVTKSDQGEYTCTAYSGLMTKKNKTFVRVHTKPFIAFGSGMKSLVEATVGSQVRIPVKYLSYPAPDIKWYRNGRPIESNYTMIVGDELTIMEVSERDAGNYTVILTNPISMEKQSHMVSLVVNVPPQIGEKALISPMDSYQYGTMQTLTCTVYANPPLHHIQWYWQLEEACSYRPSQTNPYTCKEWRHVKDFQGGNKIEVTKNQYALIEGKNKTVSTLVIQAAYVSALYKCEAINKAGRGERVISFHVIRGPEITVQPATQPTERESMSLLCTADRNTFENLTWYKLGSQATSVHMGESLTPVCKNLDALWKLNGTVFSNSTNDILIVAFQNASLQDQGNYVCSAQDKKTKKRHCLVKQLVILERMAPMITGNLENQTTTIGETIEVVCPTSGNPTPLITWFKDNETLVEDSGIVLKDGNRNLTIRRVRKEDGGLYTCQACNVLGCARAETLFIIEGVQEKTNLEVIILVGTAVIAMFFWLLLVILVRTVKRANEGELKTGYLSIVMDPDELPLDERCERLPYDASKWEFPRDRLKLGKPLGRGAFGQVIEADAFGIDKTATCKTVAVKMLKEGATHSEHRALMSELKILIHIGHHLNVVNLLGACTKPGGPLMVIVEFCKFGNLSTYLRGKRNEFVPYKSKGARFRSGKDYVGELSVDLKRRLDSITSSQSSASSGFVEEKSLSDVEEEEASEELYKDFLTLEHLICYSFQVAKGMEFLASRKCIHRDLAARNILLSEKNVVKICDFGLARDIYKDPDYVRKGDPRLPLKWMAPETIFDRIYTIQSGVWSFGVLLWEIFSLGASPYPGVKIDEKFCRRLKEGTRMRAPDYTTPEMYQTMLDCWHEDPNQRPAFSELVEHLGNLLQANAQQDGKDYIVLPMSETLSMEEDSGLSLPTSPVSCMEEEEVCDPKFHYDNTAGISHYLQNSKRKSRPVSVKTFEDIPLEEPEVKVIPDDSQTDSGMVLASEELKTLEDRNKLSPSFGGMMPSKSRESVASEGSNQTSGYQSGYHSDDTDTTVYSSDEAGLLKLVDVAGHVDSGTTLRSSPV

- ED50 of expansion of neural stem cell cultures (cell number after 7 days): 10 ng/mL
- concentration of maximal stimulation of neural stem cell expansion: 50 ng/mL
Substance: mouse recombinant VEGF164 (from UniProt Q00731 27-190) (ligand)
